We go through two molecules from patent US7947279B2, “Peptide having hydrolase activity” (The Trustees of Columbia University in the City of New York, priority 2005, dated 2011).

The target of series [1] is T1, Uch-L1 (Mus musculus, UniProt Q9R0P9).
T1 construct: hippocampal tissue was treated with tissue protein extraction reagent; from tissue; host or cells: mouse hippocampal slices (C57/BL6 or APP/PS1 and WT littermates)
T1 sequence (Q9R0P9 1-220): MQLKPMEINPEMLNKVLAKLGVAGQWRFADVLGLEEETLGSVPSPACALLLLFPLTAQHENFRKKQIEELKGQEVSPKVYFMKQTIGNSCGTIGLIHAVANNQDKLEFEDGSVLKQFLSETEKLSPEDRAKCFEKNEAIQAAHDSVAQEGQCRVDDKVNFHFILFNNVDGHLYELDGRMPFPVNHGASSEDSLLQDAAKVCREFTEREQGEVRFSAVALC
Briefly: Hydrolase (ubiquitin-AMC) assay on hippocampi of injected mice. It counts as in vivo. As to the method: (§1) Measurement of Hydrolase Activity: The hydrolase assay was performed as previously described (Nishikawa et al., 2003) with slight modifications. Briefly, hippocampal tissue was treated with tissue protein extraction reagent (T-PER; Pierce) containing freshly added EDTA-free protease inhibitors. Homogenate was centrifuged at 10,000 rpm for 5 min. Protein concentration was measured in the supernatant using the BCA protein assay reagent. In some experiments hydrolysis was initiated by adding 10 μl of 20 nM Uch-L1 or Uch-L3 (Boston Biochem). The hydrolase assay was performed using fluorogenic ubiquitin-7-amino-4-methylcoumarin (ubiquitin-AMC) (Boston Biochem) as a substrate. The substrate was diluted in assay buffer (50 mM Tris-HCL, 0.5 mM EDTA, 5 mM dithiothreitol and 0.1 mg/ml ovalbumin, pH 7.6). Each reaction mixture containing 400 nM substrate and 100 μg enzyme sample was incubated for 5 min at room temperature. The reaction was monitored using a fluorescence spectrophotometer (CytoFluor Series 4000, ABI Inc) at 25° C. The free AMC fluorophore was excited at 380 nm and measured at 460 nm. Hydrolase activity was expressed as relative fluorescence intensity/min (Dang et al., 1998). In some experiments, hydrolysis was also measured on the soluble and insoluble fractions (FIG. 28D). In a group of experiments hydrolysis was measured by mixing ubiquitin-AMC with 20 nM TAT fusion proteins (FIG. 27C). In other experiments the substrate was Nedd8-AMC (Boston Biochem). LDN-57444 was purchased from Calbiochem.

Another series has as its target T2, Uch-L3 (Homo sapiens, UniProt P15374).
T2 sequence (P15374 1-230): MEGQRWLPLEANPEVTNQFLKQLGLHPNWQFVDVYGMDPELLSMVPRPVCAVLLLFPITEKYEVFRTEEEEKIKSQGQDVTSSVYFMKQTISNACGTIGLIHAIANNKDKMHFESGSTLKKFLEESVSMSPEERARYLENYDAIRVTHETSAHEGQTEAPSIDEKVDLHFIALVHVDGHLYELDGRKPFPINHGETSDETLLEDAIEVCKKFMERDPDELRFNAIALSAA
In words: Nedd8-AMC hydrolysis by Uch-L3. The series is classed as biochemical. To be noted: 5 μM LDN, 20 nM Uch-L3, Nedd8-AMC 400 nM. As to the method:
as §1, with “Each reaction mixture containing 400 nM substrate and 100 μg enzyme sample was incubated for 5 min at room temperature.” left out, “In other experiments the substrate was Nedd8-AMC (Boston Biochem). LDN-57444 was purchased from Calbiochem.” left out

A further series has as its system hippocampal slices. The series is classed as cell-based, mouse. As to the method:
Western Blotting: Protein levels were assessed using standard procedures. Protein extraction was performed using buffer with and without detergent. For the extraction of protein using detergent, hippocampal tissues and cultured hippocampal neurons (5 DIV) were homogenized in RIPA buffer (50 mM Tris-HCl pH 7.4, 1% Triton X-100, 1% sodium deoxycholate, 0.1% SDS, 150 mM sodium chloride, 10 mM sodium fluoride, 30 mM sodium pyrophosphate, 50 mM sodium orthovanadate) containing 1× complete protease inhibitor (Roche) and 1 mM phenylmethylsulfonyl fluoride (PMSF). For extraction of proteins without detergent, hippocampal extracts were homogenized with disposable dounce homogenizers in buffer A, containing 10 mM HEPES pH 7.3, 300 mM sucrose, protease 1× complete protease inhibitor (Roche) and PMSF. After centrifugation at 10,000×g supernatant proteins were resolved on a 8% or 4-20% gradient Tris-Glycine gel, transferred onto PVDF or nitrocellulose membrane and blocked in 5% skim milk in PBS-Tween 0.1% (PBS-T). […] To control loading and transfer, protein immunoreactivities were normalized against total extracellular signal-regulated protein kinases (ERK1/2) levels with a rabbit analyzed using a rabbit polyclonal anti-ERK1/2 antibody (Cell Signaling Technology, Inc). NIH IMAGE was used to analyze the scanned blots and quantify the intensity of the protein signals.

In the next series the test system is cAMP. In words: Intracellular cAMP enzyme immunoassay. The series is classed as cell-based, rat. To be noted: fusion protein 100 nM 24 hrs, Aβ. As to the method:
Intracellular cAMP Enzyme Immunoassay. Hippocampal neurons from E18 rats were dissociated and plated on poly-L-lysine coated 6-well plates in minimum essential medium supplemented with N-2, glucose, albumin, pyruvic acid, antibiotics and antimycotics. […] After 24 hours, cell lysates were obtained and intracellular cAMP levels were measured using cAMP Biotrak Enzymeimmunoassay (EIA) System (Amersham) in accordance with manufacturer's instructions.

Series [2] deals with Uch-L1. In words: Hydrolase (ubiquitin-AMC) assay on hippocampi of injected mice. The series is classed as in vivo, mouse. To be noted: 0.02-0.04 g/kg, i.p. As to the method:
as §1

A further series deals with monoubiquitin. Briefly: Monoubiquitin levels (quantitative Western blot). It counts as cell-based, mouse. As to the method: Western Blotting: Protein levels were assessed using standard procedures. Protein extraction was performed using buffer with and without detergent. For the extraction of protein using detergent, hippocampal tissues and cultured hippocampal neurons (5 DIV) were homogenized in RIPA buffer (50 mM Tris-HCl pH 7.4, 1% Triton X-100, 1% sodium deoxycholate, 0.1% SDS, 150 mM sodium chloride, 10 mM sodium fluoride, 30 mM sodium pyrophosphate, 50 mM sodium orthovanadate) containing 1× complete protease inhibitor (Roche) and 1 mM phenylmethylsulfonyl fluoride (PMSF). For extraction of proteins without detergent, hippocampal extracts were homogenized with disposable dounce homogenizers in buffer A, containing 10 mM HEPES pH 7.3, 300 mM sucrose, protease 1× complete protease inhibitor (Roche) and PMSF. After centrifugation at 10,000×g supernatant proteins were resolved on a 8% or 4-20% gradient Tris-Glycine gel, transferred onto PVDF or nitrocellulose membrane and blocked in 5% skim milk in PBS-Tween 0.1% (PBS-T). Membranes were probed with primary antibodies, and after washing with PBS-T incubated with an appropriate HRP-conjugated secondary antibody. The following antibodies were used: mouse monoclonal anti-ubiquitin (Chemicon), rabbit polyclonal anti-pCREB (Upstate Biotech.), rabbit polyclonal anti-PKA-RIIα (Santa Cruz Biotech. Inc), mouse monoclonal anti-Uch-L1 (Novocastra), monoclonal mouse anti-HA (Santa Cruz Biotech. Inc), and anti-PKA IIα. Detection was performed using HRP-conjugated secondary antibodies (Pierce, Rockford, Ill.). To control loading and transfer, protein immunoreactivities were normalized against total extracellular signal-regulated protein kinases (ERK1/2) levels with a rabbit analyzed using a rabbit polyclonal anti-ERK1/2 antibody (Cell Signaling Technology, Inc). NIH IMAGE was used to analyze the scanned blots and quantify the intensity of the protein signals.
In general terms: A western blot detects proteins with antibodies after separation by electrophoresis.

A further series deals with phospho-CREB. Briefly: Phospho-CREB immunofluorescence in hippocampal slices. It counts as cell-based, mouse.
The next series concerns Aβ42. Briefly: Quantification of amyloid peptides by ELISA in APP/PS1 mice. To be noted: for cortex Aβ levels / hippocampal Aβ levels: 0.02-0.04 g/kg i.p.; for Aβ levels in APP/PS1 mice (words): single injection 0.02-0.04 g/kg i.p. The series is classed as in vivo, mouse. On the technique in general: In an ELISA, binding on a coated surface is turned into a signal by an enzyme label.

[3] abbreviates: 0.4 mg/kg, sacrificed 4 hrs after injection.
Where [4] appears, read: listed as Uch-L1 fusion protein.
The mark [5] stands for this setting: 3-5 month old APP/PS1 mice, sacrificed 3 weeks after injection.
The mark [6] stands for this setting: 4 month old APP/PS1 mice, sacrificed 4 hrs after injection.
Setting [7] is: 4 hrs after injection, 4 month old APP/PS1 mice.

“Also recorded” adds a separate entry of the source.

For `CC(=O)O/N=C1\C(=O)N(Cc2cc(Cl)ccc2Cl)c2ccc(Cl)cc21` [LDN-57444, reference compound], at Uch-L1 [1] (setting [3]), the “Ubiquitin-C-Terminal hydrolase activity in hippocampi” value is given as “decreased” and the Uch-L1 activity is on record as 65 % of vehicle injected controls. The “recovery of hydrolase activity” value at Uch-L1 [1] (single i.p. injection 0.4 mg/kg) was at most 8 h. Moreover, the “maximal inhibition of hydrolase activity” value at Uch-L1 [1] (single i.p. injection 0.4 mg/kg, 30 minutes post-injection) is listed as ~40 % of control. The “Uch-L3 hydrolase activity (Nedd8-AMC hydrolysis)” value on Uch-L3 was “does not affect Uch-L3 hydrolase activity”. Also, on Uch-L3 (listed as LDN), the “Uch-L3 hydrolase activity (Nedd8-AMC hydrolysis)” value is reported as “no reduction in hydrolysis of Nedd8-AMC”.

B1: TAT-HA-Uch-L1: fusion protein: 11-amino acid transduction domain of HIV-transactivator protein (TAT) fused with an HA tag and human Uch-L1 (protein)
chain: MQLKPMEINPEMLNKVLSRLGVAGQWRFVDVLGLEEESLGSVPAPACALLLLFPLTAQHENFRKKQIEELKGQEVSPKVYFMKQTIGNSCGTIGLIHAVANNQDKLGFEDGSVLKQFLSETEKMSPEDRAKCFEKNEAIQAAHDAVAQEGQCRVDDKVNFHFILFNNVDGHLYELDGRMPFPVNHGASSEDTLLKDAAKVCREFTEREQGEVRFSAVALCKAA
modifications: left off: small tags and cut ends
As for B1, the “localisation in soluble/insoluble protein fractions” value in the series with hippocampal slices is “localized to the soluble fraction”. For the same molecule, the “cAMP levels in Aβ-treated cultured hippocampal neurons (words)” value with cAMP is “remained low; also recorded: did not affect the decrease in cAMP levels; also recorded: does not rescue the decrease in cAMP levels”; in the series with cAMP (listed as TAT-Uch-L1 fusion protein), “does not re-establish normal cAMP levels”; in the series on cAMP (setting [4]), “does not rescue the decrease in cAMP levels”. For the same molecule, in the series on Uch-L1 [2], the “total Uch activity in APP/PS1 mice” value is recorded as “returned to control levels; also recorded: re-established normal total Uch activity”. The “total Uch activity in WT mice” value in the series on Uch-L1 [2] was “increased above control level; also recorded: increased total Uch activity”. Besides, the mono-ubiquitin levels in the series on monoubiquitin (20 nM fusion protein 1 hour, then 200 nM oligomeric Aβ plus fusion protein 20 min) is given as 90.25±17.25 % of control; in the series with monoubiquitin (fusion protein alone), 121.03±14.69 % of control. The “monoubiquitin levels” value with monoubiquitin (fusion protein 20 nM 1 hr pre-incubation plus Aβ) was “normal monoubiquitin levels; also recorded: blocks the decrease of monoubiquitin levels”; with monoubiquitin (fusion protein 20 nM 1 hr pre-incubation plus Aβ, listed as TAT-A-Uch-L1 peptide), “annulled the decrease”; with monoubiquitin (fusion protein 20 nM 1 hr pre-incubation plus Aβ, listed as TAT-Uch-L1 fusion protein), “re-establishes normal mono-ubiquitin levels”; with monoubiquitin (substance alone), “slight increase”. For the same molecule, in the series on phospho-CREB (fusion protein 20 nM 1 hr, then 200 nM Aβ plus fusion protein 20 min), the “tetanus-induced increase in phospho-CREB in Aβ-treated slices” value is on record as “significant protection against Aβ42 effects on phospho-CREB; also recorded: reversed; also recorded: re-established the tetanus-induced increase in CREB phosphorylation; also recorded: re-established the tetanus-induced increase in phospho-CREB”. In addition, the “tetanus-induced increase in phospho-CREB (words)” value in the series with phospho-CREB (fusion protein alone) is “did not affect the increase; also recorded: had no effect”. Moreover, the “phospho-CREB immunofluorescence without theta-burst” value with phospho-CREB (no tetanus) is recorded as “did not modify immunofluorescence; also recorded: neither Aβ42 alone nor TAT-HA-Uch-L1 alone nor TAT-HA-Uch-L1 paired with Aβ42 induced changes”. The “cortex Aβ levels” value with Aβ42 (setting [5]) was 90.28±17.38 pmol/mg protein; in the series on Aβ42 (setting [6]) it was 4.17±0.68 pmol/mg protein. Besides, the “hippocampal Aβ levels” value is given as 178.60±18.24 pmol/mg protein in the series with Aβ42 (setting [5]) and 6.35±0.54 pmol/mg protein in the series on Aβ42 (setting [6]). The “cortical Aβ42” value is “about 104%” in the series with Aβ42 (setting [7]) and “about 103%” with Aβ42 (mice tested for fear conditioning over 21 days). The “hippocampal Aβ42” value in the series on Aβ42 (setting [7]) is “about 94 % that of vehicle-treated APP/PS1 mice”. In addition, the “Aβ levels in APP/PS1 mice (words)” value is “no difference in Aβ42 levels; also recorded: did not change Aβ levels” in the series with Aβ42 and “did not change Aβ levels” in the series with Aβ42 (setting [4]).
